From doi:10.1101/2023.04.10.536149

How the values were obtained:
MBP-MafB WT [1] = biological target: T1, MBP-MafB WT (Homo sapiens, UniProt Q9Y5Q3 1-323); assay: competition
MBP-MafB ΔHis = MBP-MafB ΔHis (Homo sapiens, UniProt Q9Y5Q3 1-323, del131-167); assay: EMSA
MBP-MafB WT [2] = biological target: T1, MBP-MafB WT; assay: EMSA

Row | Binder | binding result (MBP-MafB WT [1]) | binding result (MBP-MafB ΔHis) | binding result (MBP-MafB WT [2])
1 | unlabelled MARE competitor (dsDNA) DNA 1: TGCTGACTCAGCA DNA 2: TGCTGAGTCAGCA | binds | – | –
2 | IRDye700 MARE EMSA probe (dsDNA) DNA 1: TGCTGACTCAGCA DNA 2: TGCTGAGTCAGCA | – | binds | binds
